Measurements published in US20240301076A1 (CEPHALON, published 2024).

What was measured:
human CXCR2 [1] = target: T1, human CXCR2 (human, UniProt P25025 1-360); test: flow cytometry, CXCR2-transfected Expi293F cells
T1 construct: also called CXC chemokine receptor 2; hCXCR2
T1 sequence: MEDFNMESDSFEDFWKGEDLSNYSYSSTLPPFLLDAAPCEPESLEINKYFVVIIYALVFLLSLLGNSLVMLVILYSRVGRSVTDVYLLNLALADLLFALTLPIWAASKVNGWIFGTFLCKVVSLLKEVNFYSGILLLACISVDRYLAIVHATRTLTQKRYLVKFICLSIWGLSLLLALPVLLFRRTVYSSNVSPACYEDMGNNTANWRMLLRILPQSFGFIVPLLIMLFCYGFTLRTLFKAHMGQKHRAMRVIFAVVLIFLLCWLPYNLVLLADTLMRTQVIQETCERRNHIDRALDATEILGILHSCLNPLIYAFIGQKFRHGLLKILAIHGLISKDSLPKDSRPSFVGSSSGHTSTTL
Experimental: (§1) Harvested cells were resuspended in FACS buffer (1×PBS+0.5% (w/v) bovine serum albumin (BSA)+2 mM EDTA pH 7.2). Approximately 2×10⁵ cells were added per well in a 96-well round-bottomed plate. Cells were pelleted by centrifugation at 400 g for 5 mins at 4° C. and supernatants discarded. 25 μL of each test antibody or control antibody was added to the cells and incubated for 30 minutes at 4° C. Cells were washed twice in 100 μL FACS buffer followed by centrifugation at 400 g for 5 mins at 4° C.
(§2) For detection, 50 μL of secondary antibody (Table 2) was added to relevant samples. Commercially available antibodies that bound to transfected CXCR family members were used as positive controls to ensure that the cells were expressing the receptors. Cells were washed twice in 200 μL of FACS buffer followed by centrifugation at 400 g for 5 mins at 4° C. Before sample acquisition, cells were resuspended in 100 μL of FACS buffer. Samples were acquired using the high throughput sampler on a FACSCanto™ II cytometer (Beckton-Dickinson).
Each heavy chain was co-expressed with each light chain to produce a sequence optimized antibody variant. Antibodies were purified and tested for CXCR2 binding activity as described in General Methods.

human CXCR2 [2] = target: T1, human CXCR2; test: flow cytometry, CXCR2-transfected Expi293F cells; remark: listed apart in the source
Experimental: as §1, §2
Each variant heavy chain was co-expressed with the parental light chain and vice versa.

B1: BKO-4A8 combinatorial variant 1b (antibody, human IgG4 S228P, lambda, V domains shown)
VH: EVQLLESGGGLVQPGGSLRLSCAASGFTFSSSTQSWVRQAPGKGLEWVSAISGRGRSTYYADSVKGRFTISRDNSRNTLYLQMNSLRAEDTAVYYCAIQMGYWGQGILVTVSS
VL: QSALTQPPSASGSPGQSVTISCIGTSSDVGGYNYVSWYQQHPDKAPKLMIYEVSKRPSGVPDRFSGSKSGNTASLTVSGLQAEDEADYYCSSYAGSNNFGVFGGGTKLTVLG
notes: IgG4 S228P, lambda
Q: How did the EC50 (human CXCR2 [1]) turn out when B1 was run?
A: Its EC50 is 0.3 nM.

Q: What about the “Fold Improvement over 4A8 WT” value (human CXCR2 [1]) of the same binder?
A: The value was 1.33 fold.

B2: BKO-4A8 variant VL N95aK (antibody, human IgG4 S228P, lambda, V domains shown)
VH: EVQLLESGGGLVQPGGSLRLSCAASGFTFSSSTMSWVRQAPGKGLEWVSAISGRGRNTYYADSVKGRFTISRDNSRNTLYLQMNSLRAEDTAVYYCAIQMGYWGQGILVTVSS
VL: QSALTQPPSASGSPGQSVTISCIGTSSDVGGYNYVSWYQQHPDKAPKLMIYEVNKRPSGVPDRFSGSKSGNTASLTVSGLQAEDEADYYCSSYAGNNKFGVFGGGTKLTVLG
notes: IgG4 S228P, lambda; parental heavy chain; also called 4A8 VL N95aK
Q: Which “Fold change in binding relative to BKO-4A8” value (human CXCR2 [2]) does the source give for B2 here?
A: Its value is 1 fold.

B3: BKO-4A8 variant VL N94A (antibody, human IgG4 S228P, lambda, V domains shown)
VH: EVQLLESGGGLVQPGGSLRLSCAASGFTFSSSTMSWVRQAPGKGLEWVSAISGRGRNTYYADSVKGRFTISRDNSRNTLYLQMNSLRAEDTAVYYCAIQMGYWGQGILVTVSS
VL: QSALTQPPSASGSPGQSVTISCIGTSSDVGGYNYVSWYQQHPDKAPKLMIYEVNKRPSGVPDRFSGSKSGNTASLTVSGLQAEDEADYYCSSYAGANNFGVFGGGTKLTVLG
notes: IgG4 S228P, lambda; parental heavy chain; also called 4A8 VL N94A
Q: Which “Fold change in binding relative to BKO-4A8” value (human CXCR2 [2]) does the source give for B3 here?
A: The value was 1 fold.

B4: BKO-4A8 variant VL N95aY (antibody, human IgG4 S228P, lambda, V domains shown)
VH: EVQLLESGGGLVQPGGSLRLSCAASGFTFSSSTMSWVRQAPGKGLEWVSAISGRGRNTYYADSVKGRFTISRDNSRNTLYLQMNSLRAEDTAVYYCAIQMGYWGQGILVTVSS
VL: QSALTQPPSASGSPGQSVTISCIGTSSDVGGYNYVSWYQQHPDKAPKLMIYEVNKRPSGVPDRFSGSKSGNTASLTVSGLQAEDEADYYCSSYAGNNYFGVFGGGTKLTVLG
notes: IgG4 S228P, lambda; parental heavy chain; also called 4A8 VL N95aY
Q: With B4 as the binder, how does the “Fold change in binding relative to BKO-4A8” value (human CXCR2 [2]) read?
A: Its value is 1.7 fold.

B5: BKO-4A8 variant VL N94L (antibody, human IgG4 S228P, lambda, V domains shown)
VH: EVQLLESGGGLVQPGGSLRLSCAASGFTFSSSTMSWVRQAPGKGLEWVSAISGRGRNTYYADSVKGRFTISRDNSRNTLYLQMNSLRAEDTAVYYCAIQMGYWGQGILVTVSS
VL: QSALTQPPSASGSPGQSVTISCIGTSSDVGGYNYVSWYQQHPDKAPKLMIYEVNKRPSGVPDRFSGSKSGNTASLTVSGLQAEDEADYYCSSYAGLNNFGVFGGGTKLTVLG
notes: IgG4 S228P, lambda; parental heavy chain; also called 4A8 VL N94L
Q: With B5 as the binder, how does the “Fold change in binding relative to BKO-4A8” value (human CXCR2 [2]) read?
A: Its value is 0.88 fold.

B6: BKO-4A8 variant VL N52D (antibody, human IgG4 S228P, lambda, V domains shown)
VH: EVQLLESGGGLVQPGGSLRLSCAASGFTFSSSTMSWVRQAPGKGLEWVSAISGRGRNTYYADSVKGRFTISRDNSRNTLYLQMNSLRAEDTAVYYCAIQMGYWGQGILVTVSS
VL: QSALTQPPSASGSPGQSVTISCIGTSSDVGGYNYVSWYQQHPDKAPKLMIYEVDKRPSGVPDRFSGSKSGNTASLTVSGLQAEDEADYYCSSYAGNNNFGVFGGGTKLTVLG
notes: IgG4 S228P, lambda; parental heavy chain; also called 4A8 VL N52D
Q: For B6, which “Fold change in binding relative to BKO-4A8” value (human CXCR2 [2]) is on record?
A: The value was 1.7 fold.

B7: BKO-4A8 variant VL N95aH (antibody, human IgG4 S228P, lambda, V domains shown)
VH: EVQLLESGGGLVQPGGSLRLSCAASGFTFSSSTMSWVRQAPGKGLEWVSAISGRGRNTYYADSVKGRFTISRDNSRNTLYLQMNSLRAEDTAVYYCAIQMGYWGQGILVTVSS
VL: QSALTQPPSASGSPGQSVTISCIGTSSDVGGYNYVSWYQQHPDKAPKLMIYEVNKRPSGVPDRFSGSKSGNTASLTVSGLQAEDEADYYCSSYAGNNHFGVFGGGTKLTVLG
notes: IgG4 S228P, lambda; parental heavy chain; also called 4A8 VL N95aH
Q: With B7 as the binder, how does the “Fold change in binding relative to BKO-4A8” value (human CXCR2 [2]) read?
A: Its value is 1.3 fold.

B8: BKO-4A8 variant VL Y91A (antibody, human IgG4 S228P, lambda, V domains shown)
VH: EVQLLESGGGLVQPGGSLRLSCAASGFTFSSSTMSWVRQAPGKGLEWVSAISGRGRNTYYADSVKGRFTISRDNSRNTLYLQMNSLRAEDTAVYYCAIQMGYWGQGILVTVSS
VL: QSALTQPPSASGSPGQSVTISCIGTSSDVGGYNYVSWYQQHPDKAPKLMIYEVNKRPSGVPDRFSGSKSGNTASLTVSGLQAEDEADYYCSSAAGNNNFGVFGGGTKLTVLG
notes: IgG4 S228P, lambda; parental heavy chain; also called 4A8 VL Y91A
Q: How did the “Fold change in binding relative to BKO-4A8” value (human CXCR2 [2]) turn out when B8 was run?
A: The value was 1.7 fold.

B9: BKO-4A8 variant VL K53H (antibody, human IgG4 S228P, lambda, V domains shown)
VH: EVQLLESGGGLVQPGGSLRLSCAASGFTFSSSTMSWVRQAPGKGLEWVSAISGRGRNTYYADSVKGRFTISRDNSRNTLYLQMNSLRAEDTAVYYCAIQMGYWGQGILVTVSS
VL: QSALTQPPSASGSPGQSVTISCIGTSSDVGGYNYVSWYQQHPDKAPKLMIYEVNHRPSGVPDRFSGSKSGNTASLTVSGLQAEDEADYYCSSYAGNNNFGVFGGGTKLTVLG
notes: IgG4 S228P, lambda; parental heavy chain; also called 4A8 VL K53H
Q: Which “Fold change in binding relative to BKO-4A8” value (human CXCR2 [2]) does the source give for B9 here?
A: The value was 1.4 fold.

B10: BKO-4A8 variant VL N94W (antibody, human IgG4 S228P, lambda, V domains shown)
VH: EVQLLESGGGLVQPGGSLRLSCAASGFTFSSSTMSWVRQAPGKGLEWVSAISGRGRNTYYADSVKGRFTISRDNSRNTLYLQMNSLRAEDTAVYYCAIQMGYWGQGILVTVSS
VL: QSALTQPPSASGSPGQSVTISCIGTSSDVGGYNYVSWYQQHPDKAPKLMIYEVNKRPSGVPDRFSGSKSGNTASLTVSGLQAEDEADYYCSSYAGWNNFGVFGGGTKLTVLG
notes: IgG4 S228P, lambda; parental heavy chain; also called 4A8 VL N94W
Q: How did the “Fold change in binding relative to BKO-4A8” value (human CXCR2 [2]) turn out when B10 was run?
A: Its value is 0.63 fold.

B11: BKO-4A8 variant VL N95aD (antibody, human IgG4 S228P, lambda, V domains shown)
VH: EVQLLESGGGLVQPGGSLRLSCAASGFTFSSSTMSWVRQAPGKGLEWVSAISGRGRNTYYADSVKGRFTISRDNSRNTLYLQMNSLRAEDTAVYYCAIQMGYWGQGILVTVSS
VL: QSALTQPPSASGSPGQSVTISCIGTSSDVGGYNYVSWYQQHPDKAPKLMIYEVNKRPSGVPDRFSGSKSGNTASLTVSGLQAEDEADYYCSSYAGNNDFGVFGGGTKLTVLG
notes: IgG4 S228P, lambda; parental heavy chain; also called 4A8 VL N95aD
Q: Which “Fold change in binding relative to BKO-4A8” value (human CXCR2 [2]) does the source give for B11 here?
A: The value was 2.3 fold.

B12: BKO-4A8 variant VL V97A (antibody, human IgG4 S228P, lambda, V domains shown)
VH: EVQLLESGGGLVQPGGSLRLSCAASGFTFSSSTMSWVRQAPGKGLEWVSAISGRGRNTYYADSVKGRFTISRDNSRNTLYLQMNSLRAEDTAVYYCAIQMGYWGQGILVTVSS
VL: QSALTQPPSASGSPGQSVTISCIGTSSDVGGYNYVSWYQQHPDKAPKLMIYEVNKRPSGVPDRFSGSKSGNTASLTVSGLQAEDEADYYCSSYAGNNNFGAFGGGTKLTVLG
notes: IgG4 S228P, lambda; parental heavy chain; also called 4A8 VL V97A
Q: B12 was tested. Which “Fold change in binding relative to BKO-4A8” value (human CXCR2 [2]) did it give?
A: Its value is 1.7 fold.

B13: BKO-4A8 variant VL V97K (antibody, human IgG4 S228P, lambda, V domains shown)
VH: EVQLLESGGGLVQPGGSLRLSCAASGFTFSSSTMSWVRQAPGKGLEWVSAISGRGRNTYYADSVKGRFTISRDNSRNTLYLQMNSLRAEDTAVYYCAIQMGYWGQGILVTVSS
VL: QSALTQPPSASGSPGQSVTISCIGTSSDVGGYNYVSWYQQHPDKAPKLMIYEVNKRPSGVPDRFSGSKSGNTASLTVSGLQAEDEADYYCSSYAGNNNFGKFGGGTKLTVLG
notes: IgG4 S228P, lambda; parental heavy chain; also called 4A8 VL V97K
Q: How did the “Fold change in binding relative to BKO-4A8” value (human CXCR2 [2]) turn out when B13 was run?
A: Its value is 1 fold.

B14: BKO-4A8 variant VL N95aL (antibody, human IgG4 S228P, lambda, V domains shown)
VH: EVQLLESGGGLVQPGGSLRLSCAASGFTFSSSTMSWVRQAPGKGLEWVSAISGRGRNTYYADSVKGRFTISRDNSRNTLYLQMNSLRAEDTAVYYCAIQMGYWGQGILVTVSS
VL: QSALTQPPSASGSPGQSVTISCIGTSSDVGGYNYVSWYQQHPDKAPKLMIYEVNKRPSGVPDRFSGSKSGNTASLTVSGLQAEDEADYYCSSYAGNNLFGVFGGGTKLTVLG
notes: IgG4 S228P, lambda; parental heavy chain; also called 4A8 VL N95aL
Q: With B14 as the binder, how does the “Fold change in binding relative to BKO-4A8” value (human CXCR2 [2]) read?
A: Its value is 1.7 fold.

B15: BKO-4A8 variant VL R54Q (antibody, human IgG4 S228P, lambda, V domains shown)
VH: EVQLLESGGGLVQPGGSLRLSCAASGFTFSSSTMSWVRQAPGKGLEWVSAISGRGRNTYYADSVKGRFTISRDNSRNTLYLQMNSLRAEDTAVYYCAIQMGYWGQGILVTVSS
VL: QSALTQPPSASGSPGQSVTISCIGTSSDVGGYNYVSWYQQHPDKAPKLMIYEVNKQPSGVPDRFSGSKSGNTASLTVSGLQAEDEADYYCSSYAGNNNFGVFGGGTKLTVLG
notes: IgG4 S228P, lambda; parental heavy chain; also called 4A8 VL R54Q
Q: For B15, which “Fold change in binding relative to BKO-4A8” value (human CXCR2 [2]) is on record?
A: Its value is 1.6 fold.
